Results on five molecules are retold here after publication PMC8897410.

What is called Kd is a measure of binding affinity in units of concentration.

The target in data set [1] is T1, FimT Lp (Legionella pneumophila, UniProt Q5ZVL2 38-162). The data set is described as follows: ITC; 50 mM NaCl, 30 C; N 1.09; 50 mM Tris-HCl pH 7.2, 50 mM NaCl; […]; ITC 30 C; MST 50-150 mM NaCl, 0.05% Tween-20, […]. The note with it: protein: recombinant; tags: His6-SUMO cleaved. On the technique in general: In ITC the heat of successive injections is recorded.
The target in data set [2] is T1, FimT Lp. Briefly: MST/TRIC; 50 mM NaCl; 50 mM Tris-HCl pH 7.2, 50 mM NaCl; […]; ITC 30 C; MST 50-150 mM NaCl, 0.05% Tween-20, […]. The note with it: protein: recombinant; tags: His6-SUMO cleaved; label: 5'-FAM on one strand; blunt.
Data set [3] has as its target T1, FimT Lp. Briefly: ITC; 50 mM Tris-HCl pH 7.2, 50 mM NaCl; […]; ITC 30 C; MST 50-150 mM NaCl, 0.05% Tween-20, […]. Particulars: protein: recombinant; tags: His6-SUMO cleaved; blunt.
The target in data set [4] is T1, FimT Lp. Briefly: NMR titration; 50 mM NaCl; 50 mM Tris-HCl pH 7.2, 50 mM NaCl; […]; ITC 30 C; MST 50-150 mM NaCl, 0.05% Tween-20, […]. The note with it: protein: recombinant; tags: His6-SUMO cleaved; blunt.
Another data set deals with FimU Lp (Legionella pneumophila, UniProt Q5ZXU9 96-235). The data set is described as follows: EMSA; up to 100 uM protein; 50 mM Tris-HCl pH 7.2, 50 mM NaCl; […]; ITC 30 C; MST 50-150 mM NaCl, 0.05% Tween-20, […]. The note with it: protein: recombinant; tags: His6-SUMO cleaved; blunt.
Another data set addresses PilA1 Lp (Legionella pneumophila, UniProt Q5ZU93 35-142). Described as above. Particulars: protein: recombinant; tags: His6 cleaved (PreScission); blunt.
The target of the next data set is PilA2 Lp (Legionella pneumophila, UniProt Q5ZU92 34-140). Described as above. Particulars: protein: recombinant; tags: His6 cleaved (PreScission); blunt.
The target in data set [5] is T1, FimT Lp. Briefly: EMSA; Kd stated as low uM range; 50 mM Tris-HCl pH 7.2, 50 mM NaCl; […]; ITC 30 C; MST 50-150 mM NaCl, 0.05% Tween-20, […]. The note with it: protein: recombinant; tags: His6-SUMO cleaved; blunt.
Another data set addresses FimT Pa (Pseudomonas aeruginosa PAO1, UniProt Q9HVN0 36-169). Briefly: EMSA; affinity same order of magnitude as FimT Lp; 50 mM Tris-HCl pH 7.2, 50 mM NaCl; […]; ITC 30 C; MST 50-150 mM NaCl, 0.05% Tween-20, […]. The note with it: protein: recombinant; tags: His6-SUMO cleaved; blunt.
In another data set the target is FimT Xc (Xanthomonas campestris pv. campestris …, UniProt Q8P7X0 39-183). Described as above. The note with it: protein: recombinant; tags: His6-SUMO cleaved; blunt.
Data set [6] addresses T1, FimT Lp. The data set is described as follows: EMSA; 50 mM Tris-HCl pH 7.2, 50 mM NaCl; […]; ITC 30 C; MST 50-150 mM NaCl, 0.05% Tween-20, […]. Particulars: protein: recombinant; tags: His6-SUMO cleaved. In general terms: A gel shift assay detects complexes by their altered migration in electrophoresis.

As to GTTCGCAACGAA (ssDNA) [12mer ssDNA], the dissociation constant (Kd) with FimT Lp [1] amounted to 7 ± 0.3 µM.

B1: FAM-12mer dsDNA (dsDNA)
DNA 1: GTTCGCAACGAA
DNA 2: TTCGTTGCGAAC
For B1, the dissociation constant Kd in the data set with FimT Lp [2] came out at 6.3 ± 0.9 µM.

B2: 12mer dsDNA (dsDNA)
DNA 1: GTTCGCAACGAA
DNA 2: TTCGTTGCGAAC
Regarding B2, the values for the Kd with FimT Lp [3] and with FimT Lp [4] were 2.8 ± 0.2 µM and about 8.1 µM, respectively.

B3: 30mer dsDNA (dsDNA)
DNA 1: TTAAATAGGCTTGGCAGGGTTAGGGTAGGG
DNA 2: CCCTACCCTAACCCTGCCAAGCCTATTTAA
B3: the binding result is listed as “no binding” in the data set with FimU Lp; “no binding” with PilA1 Lp; “no binding” with PilA2 Lp; “binds” with FimT Lp [5]; “binds” with FimT Pa; “binds” with FimT Xc.
For TTAAATAGGCTTGGCAGGGTTAGGGTAGGG (ssDNA) [30mer ssDNA], the binding result with FimT Lp [6] is “binds”.
